Molecular target: C-terminally FLAG-tagged HPIV3 P protein (P-FLAG) (human parainfluenza virus type 3 (HPIV3)) (UniProt P06162)
Assay: co-IP

UniProt P06162, sequence (P06162 whole entry): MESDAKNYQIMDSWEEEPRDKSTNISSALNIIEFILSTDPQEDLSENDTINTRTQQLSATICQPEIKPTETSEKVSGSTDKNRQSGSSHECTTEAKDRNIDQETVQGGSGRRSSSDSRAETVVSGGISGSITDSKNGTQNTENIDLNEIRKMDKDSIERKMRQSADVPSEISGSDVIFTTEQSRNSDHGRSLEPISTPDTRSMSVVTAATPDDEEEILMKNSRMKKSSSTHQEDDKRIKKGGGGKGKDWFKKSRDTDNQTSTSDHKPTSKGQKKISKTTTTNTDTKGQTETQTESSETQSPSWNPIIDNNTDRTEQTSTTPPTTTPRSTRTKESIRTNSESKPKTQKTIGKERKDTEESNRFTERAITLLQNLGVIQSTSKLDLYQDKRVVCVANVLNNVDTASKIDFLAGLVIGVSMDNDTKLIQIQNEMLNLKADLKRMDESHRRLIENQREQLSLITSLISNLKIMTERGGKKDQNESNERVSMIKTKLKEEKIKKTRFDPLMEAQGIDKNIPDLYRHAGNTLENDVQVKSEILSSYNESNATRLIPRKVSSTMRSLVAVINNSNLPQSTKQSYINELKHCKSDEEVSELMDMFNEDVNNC

Question: How did the binding as percent of Lwt (phosphoimager) turn out when “L N960, non-tagged (from UniProt P12577 1-960) (domain or fragment)” was run?
Answer: Its binding as percent of Lwt (phosphoimager) is 26.8 % of Lwt.
